Experimental data published in US20170321240.

Assays:
[1] = tested on: Left TALEN Slc35c1 (synthetic construct (Xanthomonas AvrBs3 scaffold)); test: cell_activity; conditions: TALEN pair with right TALEN, 19-bp spacer; T7E1 assay 72 h, CHO cells
[2] = tested on: Right TALEN Slc35c1 (synthetic construct (Xanthomonas AvrBs3 scaffold)); test: cell_activity; conditions: TALEN pair with left TALEN, 19-bp spacer; T7E1 assay 72 h, CHO cells

Substance	activity (% gene modification) [1]	activity (% gene modification) [2]
Slc35c1 exon 1 left TALEN half-site	7.3	
Slc35c1 exon 1 right TALEN half-site		7.3
